Results published in article PMC4715182, “Structure of a Chaperone-Usher Pilus Reveals the Molecular Basis of Rod Uncoiling” (Cell, 2016).
Where “and” joins values, the source holds several entries; their conditions need not be identical. Equal entries are not always repeated.

Columns and labels:
[1] = biological target: T1, PapA Gln106AzF, P04127; experiment: pilus rod formation quantified by Sypro Ruby signal after ultracentrifugation; conditions: chain shown with the change;; parent: est. 100; read off a plot
T1 chain: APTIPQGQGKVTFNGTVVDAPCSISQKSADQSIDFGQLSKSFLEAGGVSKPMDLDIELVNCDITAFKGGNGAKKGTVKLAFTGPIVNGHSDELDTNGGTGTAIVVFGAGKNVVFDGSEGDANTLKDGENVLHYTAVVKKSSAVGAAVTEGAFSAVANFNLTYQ

[2] = biological target: T2, PapA Lys27AzF, P04127; experiment: as above; conditions: chain shown with the change;; parent: est. 100; read off a plot
T2 chain: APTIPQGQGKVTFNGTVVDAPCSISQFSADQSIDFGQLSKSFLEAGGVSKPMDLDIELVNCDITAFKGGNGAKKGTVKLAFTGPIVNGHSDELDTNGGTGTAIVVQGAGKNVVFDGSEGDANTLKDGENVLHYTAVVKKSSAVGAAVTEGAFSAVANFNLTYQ

[3] = biological target: T3, PapA Thr76AzF, P04127; experiment: as above; conditions: chain shown with the change;; parent: est. 100; read off a plot
T3 chain: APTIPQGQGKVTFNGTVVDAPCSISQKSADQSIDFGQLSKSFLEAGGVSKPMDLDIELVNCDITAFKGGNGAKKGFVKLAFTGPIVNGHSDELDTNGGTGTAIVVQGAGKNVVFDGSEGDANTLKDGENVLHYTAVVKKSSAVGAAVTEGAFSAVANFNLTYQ

[4] = biological target: T4, PapA Val143AzF, P04127; experiment: as above; conditions: chain shown with the change;; parent: est. 100; read off a plot
T4 chain: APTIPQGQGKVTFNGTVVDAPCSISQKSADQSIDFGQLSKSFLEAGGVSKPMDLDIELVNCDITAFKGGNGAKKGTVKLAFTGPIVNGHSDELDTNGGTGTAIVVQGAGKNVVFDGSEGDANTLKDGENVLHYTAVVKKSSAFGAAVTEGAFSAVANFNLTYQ

[5] = biological target: T5, PapA Val18AzF, P04127; experiment: as above; conditions: chain shown with the change;; parent: est. 100; read off a plot
T5 chain: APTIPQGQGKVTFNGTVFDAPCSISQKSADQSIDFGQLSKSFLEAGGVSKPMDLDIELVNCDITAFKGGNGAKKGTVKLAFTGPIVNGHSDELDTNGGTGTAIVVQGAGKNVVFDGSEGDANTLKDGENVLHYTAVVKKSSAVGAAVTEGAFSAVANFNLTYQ

[6] = biological target: T6, PapA Lys50AzF, P04127; experiment: as above; conditions: chain shown with the change;; parent: est. 100; read off a plot
T6 chain: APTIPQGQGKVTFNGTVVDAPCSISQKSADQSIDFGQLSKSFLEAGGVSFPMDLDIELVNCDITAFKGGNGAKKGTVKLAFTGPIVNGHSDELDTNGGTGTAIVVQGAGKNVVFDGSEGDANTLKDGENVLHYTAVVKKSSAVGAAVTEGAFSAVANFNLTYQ

[7] = biological target: T7, PapA Val155AzF, P04127; experiment: as above; conditions: chain shown with the change;; parent: est. 100; read off a plot
T7 chain: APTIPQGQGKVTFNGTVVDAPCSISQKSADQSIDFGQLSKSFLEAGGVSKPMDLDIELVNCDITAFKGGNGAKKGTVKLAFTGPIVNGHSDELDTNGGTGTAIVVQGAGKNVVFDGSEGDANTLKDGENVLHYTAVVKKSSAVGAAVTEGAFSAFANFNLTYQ

[8] = biological target: the molecule itself; experiment: SEC; purified PapDHis:PapA left to polymerize at 20°C for 16 hr at 38 μM; Superdex 200 10/300 increase; donor-strand exchange (DSE) products
[9] = biological target: the molecule itself; experiment: SEC-MALS; sample of PapD:PapA Val18AzF; Superdex 200 10/300 increase; molecular weight of each peak
[10] = biological target: the molecule itself; experiment: in vitro rod formation (pelleting by ultracentrifugation, negative stain EM, Sypro Ruby signal); purified PapD:PapA complexes at 50 μM, 20°C, 72 hr; four rounds of ultracentrifugation at 57,000 x g; 20 mM Tris (pH 7.5), 150 mM NaCl

B1: PapA wild-type, P04127 Q106AzF (protein)
chain: APTIPQGQGKVTFNGTVVDAPCSISQKSADQSIDFGQLSKSFLEAGGVSKPMDLDIELVNCDITAFKGGNGAKKGTVKLAFTGPIVNGHSDELDTNGGTGTAIVVFGAGKNVVFDGSEGDANTLKDGENVLHYTAVVKKSSAVGAAVTEGAFSAVANFNLTYQ
percent of parent (% of wild-type Sypro Ruby signal) [1]: 93

B2: PapA wild-type, P04127 K27AzF (protein)
chain: APTIPQGQGKVTFNGTVVDAPCSISQFSADQSIDFGQLSKSFLEAGGVSKPMDLDIELVNCDITAFKGGNGAKKGTVKLAFTGPIVNGHSDELDTNGGTGTAIVVQGAGKNVVFDGSEGDANTLKDGENVLHYTAVVKKSSAVGAAVTEGAFSAVANFNLTYQ
percent of parent (% of wild-type Sypro Ruby signal) [2]: 93

B3: PapA wild-type, P04127 T76AzF (protein)
chain: APTIPQGQGKVTFNGTVVDAPCSISQKSADQSIDFGQLSKSFLEAGGVSKPMDLDIELVNCDITAFKGGNGAKKGFVKLAFTGPIVNGHSDELDTNGGTGTAIVVQGAGKNVVFDGSEGDANTLKDGENVLHYTAVVKKSSAVGAAVTEGAFSAVANFNLTYQ
percent of parent (% of wild-type Sypro Ruby signal) [3]: 96

B4: PapA wild-type, P04127 V143AzF (protein)
chain: APTIPQGQGKVTFNGTVVDAPCSISQKSADQSIDFGQLSKSFLEAGGVSKPMDLDIELVNCDITAFKGGNGAKKGTVKLAFTGPIVNGHSDELDTNGGTGTAIVVQGAGKNVVFDGSEGDANTLKDGENVLHYTAVVKKSSAFGAAVTEGAFSAVANFNLTYQ
percent of parent (% of wild-type Sypro Ruby signal) [4]: 94

B5: PapA wild-type, P04127 V18AzF (protein)
chain: APTIPQGQGKVTFNGTVFDAPCSISQKSADQSIDFGQLSKSFLEAGGVSKPMDLDIELVNCDITAFKGGNGAKKGTVKLAFTGPIVNGHSDELDTNGGTGTAIVVQGAGKNVVFDGSEGDANTLKDGENVLHYTAVVKKSSAVGAAVTEGAFSAVANFNLTYQ
percent of parent (% of wild-type Sypro Ruby signal) [5]: 5

B6: PapA wild-type, P04127 K50AzF (protein)
chain: APTIPQGQGKVTFNGTVVDAPCSISQKSADQSIDFGQLSKSFLEAGGVSFPMDLDIELVNCDITAFKGGNGAKKGTVKLAFTGPIVNGHSDELDTNGGTGTAIVVQGAGKNVVFDGSEGDANTLKDGENVLHYTAVVKKSSAVGAAVTEGAFSAVANFNLTYQ
percent of parent (% of wild-type Sypro Ruby signal) [6]: 72

B7: PapA wild-type, P04127 V155AzF (protein)
chain: APTIPQGQGKVTFNGTVVDAPCSISQKSADQSIDFGQLSKSFLEAGGVSKPMDLDIELVNCDITAFKGGNGAKKGTVKLAFTGPIVNGHSDELDTNGGTGTAIVVQGAGKNVVFDGSEGDANTLKDGENVLHYTAVVKKSSAVGAAVTEGAFSAFANFNLTYQ
percent of parent (% of wild-type Sypro Ruby signal) [7]: 5

B8: PapA wild-type (natural protein)
chain: APTIPQGQGKVTFNGTVVDAPCSISQKSADQSIDFGQLSKSFLEAGGVSKPMDLDIELVNCDITAFKGGNGAKKGTVKLAFTGPIVNGHSDELDTNGGTGTAIVVQGAGKNVVFDGSEGDANTLKDGENVLHYTAVVKKSSAVGAAVTEGAFSAVANFNLTYQ
notes: PapA, major P pilus rod subunit of uropathogenic E. coli; Ala1 is the very N terminus in the model; also called major pilus subunit PapA; P pilus rod subunit
binding result [8]: binds

B9: PapA Asn96AzF (natural protein)
chain: APTIPQGQGKVTFNGTVVDAPCSISQKSADQSIDFGQLSKSFLEAGGVSKPMDLDIELVNCDITAFKGGNGAKKGTVKLAFTGPIVNGHSDELDTFGGTGTAIVVQGAGKNVVFDGSEGDANTLKDGENVLHYTAVVKKSSAVGAAVTEGAFSAVANFNLTYQ
modifications: p-azido-L-phenylalanine (AzF) at 96
notes: PapA of uropathogenic E. coli with AzF at residue 96 by amber suppression; The new residue is the unnatural amino acid p-azido-L-phenylalanine; written as F with the modification
binding result [8]: binds

B10: PapA Asp126AzF (natural protein)
chain: APTIPQGQGKVTFNGTVVDAPCSISQKSADQSIDFGQLSKSFLEAGGVSKPMDLDIELVNCDITAFKGGNGAKKGTVKLAFTGPIVNGHSDELDTNGGTGTAIVVQGAGKNVVFDGSEGDANTLKFGENVLHYTAVVKKSSAVGAAVTEGAFSAVANFNLTYQ
modifications: p-azido-L-phenylalanine (AzF) at 126
notes: PapA of uropathogenic E. coli with AzF at residue 126 by amber suppression; The new residue is the unnatural amino acid p-azido-L-phenylalanine; written as F with the modification
binding result [8]: binds

B11: PapA Val18AzF (natural protein)
chain: APTIPQGQGKVTFNGTVFDAPCSISQKSADQSIDFGQLSKSFLEAGGVSKPMDLDIELVNCDITAFKGGNGAKKGTVKLAFTGPIVNGHSDELDTNGGTGTAIVVQGAGKNVVFDGSEGDANTLKDGENVLHYTAVVKKSSAVGAAVTEGAFSAVANFNLTYQ
modifications: p-azido-L-phenylalanine (AzF) at 18
notes: PapA of uropathogenic E. coli with AzF at residue 18 by amber suppression; The new residue is the unnatural amino acid p-azido-L-phenylalanine; written as F with the modification; also called Val18 mutant
stoichiometry N [9]: 2 and 3

B12: PapA Val155AzF (natural protein)
chain: APTIPQGQGKVTFNGTVVDAPCSISQKSADQSIDFGQLSKSFLEAGGVSKPMDLDIELVNCDITAFKGGNGAKKGTVKLAFTGPIVNGHSDELDTNGGTGTAIVVQGAGKNVVFDGSEGDANTLKDGENVLHYTAVVKKSSAVGAAVTEGAFSAFANFNLTYQ
modifications: p-azido-L-phenylalanine (AzF) at 155
notes: PapA of uropathogenic E. coli with AzF at residue 155 by amber suppression; The new residue is the unnatural amino acid p-azido-L-phenylalanine; written as F with the modification
binding result [8]: binds

B13: PapA Lys27AzF (natural protein)
chain: APTIPQGQGKVTFNGTVVDAPCSISQFSADQSIDFGQLSKSFLEAGGVSKPMDLDIELVNCDITAFKGGNGAKKGTVKLAFTGPIVNGHSDELDTNGGTGTAIVVQGAGKNVVFDGSEGDANTLKDGENVLHYTAVVKKSSAVGAAVTEGAFSAVANFNLTYQ
modifications: p-azido-L-phenylalanine (AzF) at 27
notes: PapA of uropathogenic E. coli with AzF at residue 27 by amber suppression; The new residue is the unnatural amino acid p-azido-L-phenylalanine; written as F with the modification
binding result [10]: binds

B14: PapA Thr76AzF (natural protein)
chain: APTIPQGQGKVTFNGTVVDAPCSISQKSADQSIDFGQLSKSFLEAGGVSKPMDLDIELVNCDITAFKGGNGAKKGFVKLAFTGPIVNGHSDELDTNGGTGTAIVVQGAGKNVVFDGSEGDANTLKDGENVLHYTAVVKKSSAVGAAVTEGAFSAVANFNLTYQ
modifications: p-azido-L-phenylalanine (AzF) at 76
notes: PapA of uropathogenic E. coli with AzF at residue 76 by amber suppression; The new residue is the unnatural amino acid p-azido-L-phenylalanine; written as F with the modification
binding result [10]: binds

B15: PapA Val143AzF (natural protein)
chain: APTIPQGQGKVTFNGTVVDAPCSISQKSADQSIDFGQLSKSFLEAGGVSKPMDLDIELVNCDITAFKGGNGAKKGTVKLAFTGPIVNGHSDELDTNGGTGTAIVVQGAGKNVVFDGSEGDANTLKDGENVLHYTAVVKKSSAFGAAVTEGAFSAVANFNLTYQ
modifications: p-azido-L-phenylalanine (AzF) at 143
notes: PapA of uropathogenic E. coli with AzF at residue 143 by amber suppression; The new residue is the unnatural amino acid p-azido-L-phenylalanine; written as F with the modification
binding result [10]: binds

B16: PapA Lys50AzF (natural protein)
chain: APTIPQGQGKVTFNGTVVDAPCSISQKSADQSIDFGQLSKSFLEAGGVSFPMDLDIELVNCDITAFKGGNGAKKGTVKLAFTGPIVNGHSDELDTNGGTGTAIVVQGAGKNVVFDGSEGDANTLKDGENVLHYTAVVKKSSAVGAAVTEGAFSAVANFNLTYQ
modifications: p-azido-L-phenylalanine (AzF) at 50
notes: PapA of uropathogenic E. coli with AzF at residue 50 by amber suppression; The new residue is the unnatural amino acid p-azido-L-phenylalanine; written as F with the modification
binding result [10]: binds

B17: PapA Gln106AzF (natural protein)
chain: APTIPQGQGKVTFNGTVVDAPCSISQKSADQSIDFGQLSKSFLEAGGVSKPMDLDIELVNCDITAFKGGNGAKKGTVKLAFTGPIVNGHSDELDTNGGTGTAIVVFGAGKNVVFDGSEGDANTLKDGENVLHYTAVVKKSSAVGAAVTEGAFSAVANFNLTYQ
modifications: p-azido-L-phenylalanine (AzF) at 106
notes: PapA of uropathogenic E. coli with AzF at residue 106 by amber suppression; The new residue is the unnatural amino acid p-azido-L-phenylalanine; written as F with the modification
binding result [10]: binds
